Experimental findings from patent publication US9523084B2, “Phosphodeoxyribosyl transferase mutant enzymes and uses thereof” (Centre National De La Recherche Scientifique, priority 2012, dated 2016) are described below.

The data set in a line: Standard enzyme assay (HPLC): specific activities of PDT variants with natural purines and pyrimidines. The data set is classed as biochemical. The note with it: for Specific activity: donor 3 mM, acceptor 1 mM. The protocol: The standard assay (“first protocol for enzyme assay”) for the different NDTs consisted of 5-15 μg of NDT in 50 mM MES buffer pH 6.0, dNxP (dNMP, or dNDP or dNTP) 3 mM and a base 1 mM in a total volume of 50 μL. Assays were incubated for 60 min at 37° C. The products of the reactions were analyzed each 7 min by Rapid resolution high performance liquid chromatography using a reverse-phase column (ZORBAX Eclipse XDB-C18 2.1*50 mm 1.8 μM) with a flow rate of 0.25 ml/min and a linear gradient of 1-12% CH3CN (2-25% CH3CN or 1-90% CH3CN) in 20 mM triethylammonium acetate, pH 7.5, buffer for 7 min. The low resolution mass spectra of the newly synthesized deoxyribonucleotides were obtained on an Agilent 1200 series LC/MS 6120 quadrupole system using an atmospheric electrospray ionization system.
Unless specifically mentioned, the results presented hereafter have been obtained by using the first protocol for performing the enzyme assay.

B1: PDTM3: NDT mutant R13 S92, SEQ ID NO:5 (protein)
chain: MPKKTIYFGAGWRTDRQNKAYKEAMEALKENPTIDLENSYVPLDNQYKGIRVDEHPEYLHDKVWATATYNNDLNGIKTNDIMLGVYIPDEESVGLGMELGYALSQGKYVLLVIPDEDYGKPINLMSWGVSDNVIKMSQLKDFNFNKPRFDFYEGAVY
modifications: PDTM3 enzyme mutant
For B1, the Specific activity is, setting by setting: (dAMP + C ⇄ dCMP + A) 34.7 nanomoles of deoxynucleotides synthesized per min per mg of protein; (dAMP + Hx ⇄ dIMP + A) 2 nanomoles of deoxynucleotides synthesized per min per mg of protein; (dCMP + A ⇄ dAMP + C) 79.7 nanomoles of deoxynucleotides synthesized per min per mg of protein; (dCMP + T ⇄ dTMP + C) 18.2 nanomoles of deoxynucleotides synthesized per min per mg of protein; (dGMP + A ⇄ dAMP + G) 8.5 nanomoles of deoxynucleotides synthesized per min per mg of protein. The “fold lower activity than between C and A” value (transfer of deoxyribose 5-phosphate between A and C) was “two-fold”; the “fold lower activity than between C and A” value (transfer of deoxyribose 5-phosphate between C and T) is recorded as 4 fold. Further, the “factor of enhancement of deoxyribose 5-phosphate transferase activity between C and A” value (upon substitution of F13 to arginine (PDTM3 from PDTM1, PDTM4 from PDTM2)) came to 50.

B2: PDTT0: NDT mutant R13 G92 T93 S123, SEQ ID NO:8 (protein)
chain: MPKKTIYFGAGWRTDRQNKAYKEAMEALKENPTIDLENSYVPLDNQYKGIRVDEHPEYLHDKVWATATYNNDLNGIKTNDIMLGVYIPDEEGTGLGMELGYALSQGKYVLLVIPDEDYGKPISLMSWGVSDNVIKMSQLKDFNFNKPRFDFYEGAVY
modifications: PDTT0 enzyme mutant
B2: the Specific activity is reported as 23.7 nanomoles of deoxynucleotides synthesized per min per mg of protein (dAMP + C ⇄ dCMP + A); <0.1 nanomoles of deoxynucleotides synthesized per min per mg of protein (dAMP + Hx ⇄ dIMP + A); <0.1 nanomoles of deoxynucleotides synthesized per min per mg of protein (dCDP + A ⇄ dADP + C); 46.3 nanomoles of deoxynucleotides synthesized per min per mg of protein (dCMP + A ⇄ dAMP + C); <0.1 nanomoles of deoxynucleotides synthesized per min per mg of protein (dCMP + T ⇄ dTMP + C); <0.1 nanomoles of deoxynucleotides synthesized per min per mg of protein (dCTP + A ⇄ dATP + C). For the same molecule, the Specific activity (dGMP + A ⇄ dAMP + G) is recorded as 49 nanomoles of deoxynucleotides synthesized per min per mg of protein.
